T1: ASAP1 ZA domain (Arf GAP and ankyrin repeat domains), [431–724]ASAP1 (UniProt Q9QWY8 431-724)
T1 construct: Isotopically labelled for the PRE experiment; also called ^ΔPHZA; isolated ZA domain; source: recombinant; expression not described
T1 sequence (looked up): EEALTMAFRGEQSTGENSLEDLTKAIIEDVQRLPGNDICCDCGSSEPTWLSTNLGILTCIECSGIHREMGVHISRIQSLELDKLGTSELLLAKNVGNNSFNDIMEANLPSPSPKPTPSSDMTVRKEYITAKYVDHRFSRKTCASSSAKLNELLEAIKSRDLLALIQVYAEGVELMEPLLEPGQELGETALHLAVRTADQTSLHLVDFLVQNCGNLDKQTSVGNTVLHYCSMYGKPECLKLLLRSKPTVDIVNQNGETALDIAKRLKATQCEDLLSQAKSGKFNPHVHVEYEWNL


Columns and labels:
[1] = biological target: T1, ASAP1 ZA domain (Arf GAP and ankyrin …); assay: NMR paramagnetic relaxation enhancement; Cys159-MTSL myrArf1 (non-hydrolysable GTP analog) alone or in complex with wt PH on nanodiscs, 100 μM, with 100 μM isolated isotopically labelled ZA domain; conditions: both partners purified
[2] = biological target: T2, myristoylated human Arf1, GTP-bound form, anchored on membrane (nanodiscs or LUVs) (human, UniProt P84077 1-181, N-myristoylated); assay: cell-based or functional assay
T2 sequence (P84077 whole entry, the tested form may be a part): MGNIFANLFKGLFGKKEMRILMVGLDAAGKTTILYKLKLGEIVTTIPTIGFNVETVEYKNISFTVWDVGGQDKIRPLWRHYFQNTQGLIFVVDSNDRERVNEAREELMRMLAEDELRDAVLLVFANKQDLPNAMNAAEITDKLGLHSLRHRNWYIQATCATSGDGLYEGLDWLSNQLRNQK

[3] = biological target: T2, myristoylated human Arf1, GTP-bound …; assay: other fluorescence titration + other: inhibition of the GAP activity of wt PZA; proxies for affinity: (1) rate of mant-GTP dissociation from myrArf1 (Trp to mant FRET) against PH concentration, LUVs with 5 mol% PI(4,5)P2, excess GTP; (2) IC50 of PH domain on GTP hydrolysis in 3 min with myrArf1·GTP below the Km and 1 nM wt PZA; conditions: both partners purified

Row | Kd [1] | “in trans” effect of the PH domain on GTP hydrolysis on myrArf1 by the isolated ZA domain (LUVs), relative to wt PH [2] | affinity relative to wt PH [3] | Binder
1 | 100 to 1000 µM |  |  | Cys159-MTSL tagged myrArf1 (natural protein, N-myristoylated; MTSL spin label on the native Cys159, human Arf1, UniProt P84077; source: E. coli BL21 Star (DE3), co-expressed with yeast NMT, purified; spin-labelled on nanodiscs) not shown
2 |  | 0.01 fold of wt PH | ~0.5 fold of wt PH | ΔN14 ASAP1 PH domain, [339–451]ASAP1 (domain or fragment, UniProt Q9QWY8 339-451, looked up, ASAP1 PH domain without residues 325-338 (the first 14 residues of the wt PH construct), residues 339-451; also called ^ΔN14PH) GSEKKGFLLKKSDGIRKVWQRRKCAVKNGILTISHATSNRQPAKLNLLTCQVKPNAEDKKSFDLISHNRTYHFQAEDEQDYIAWISVLTNSKEEALTMAFRGEQSTGENSLED

From article doi:10.1101/2024.12.20.629688, “The PH domain in the ArfGAP ASAP1 drives catalytic activation through an unprecedented allosteric mechanism” (bioRxiv, 2024)
